# Laboratory results taken from paper PMC4352251, “The VieB auxiliary protein negatively regulates the VieSA signal transduction system in Vibrio cholerae” (BMC Microbiology, 2015).
# Molecular target: VieS-C (untagged cytoplasmic portion of the sensor kinase VieS) (UniProt O68317)
# Assay: composition-gradient MALS (CG-MALS)
substance,measurement,value
VieB D62E (His6 tag removed) (from UniProt O68319 1-553) (natural protein),Kd,197 nM
same,stoichiometry N (VieB D62E monomer per VieS-C dimer),1
